Non-standard residues stand in square brackets, D forms with d. Primed or numbered codes have the meaning given here. *: point of attachment. DO3A10CM(3) = metal chelator group attached at the N-terminus (X in table rows); DO3A10CM″ = chelating group at the N-terminus (X in the sequence tables); Bpa = N[C@@H](Cc1ccc(C(=O)c2ccccc2)cc1)C(=O)O; d2Nal = N[C@H](Cc1ccc2ccccc2c1)C(=O)O; d3Pal = N[C@H](Cc1cccnc1)C(=O)O; DO3A10CM = not defined here; Nicotinoyl = O=C(c1cccnc1)*; Chmgly = not defined here; Apgly = not defined here; Bugly = not defined here; Cegly = not defined here; Etgly = not defined here; Hegly = not defined here; Iegly = not defined here; Ipgly = not defined here; Mpgly = not defined here; Prgly = not defined here; Tdgly = not defined here; Btd = not defined here; Tha = not defined here; azaGly = NNC(=O)O; Sar = CNCC(=O)O
Target: LHRH binding sites on EFO-27 human ovarian cancer cells (human)
Test: competition with [125I-Tyr8]BRU-2477 on EFO-27 cells

Row | Binder | EC50 [nM] | further results
1 | XRWSHXWXPGX (DO3A10CM on N-terminus; AA1 Dnal2; AA6 Darg; AA8 Bpa4; AA10 Gly-NH2 (amide)) [BRU-3005] | 660 | 
2 | DO3A10CM-G[Cegly]HWSHRW[Bpa]P[azaGly]-NH2 (not fully specified (residue 7); reading uncertain; also: AA6 Darg prints R) [BRU-2875] | 8700 | 
3 | {DO3A10CM(3)}-[Sar]HWSH[dK](Nicotinoyl)WYP[azaGly]-NH2 [BRU-2674] | 22600 | 
4 | DO3A10CM-G[Bugly]HWSH[dR]W[Bpa]P[azaGly]-NH2 (reading uncertain) [BRU-2791] | 4030 | 
5 | {DO3A10CM(3)}-[Sar]HWSH[d3Pal]W[Bpa]P[azaGly]-NH2 [BRU-2673] | 12300 | 
6 | XRWSHXWXPG (DO3A10CM on N-terminus; AA1 Dnal2; AA6 Darg; AA8 Bpa4; C-terminal Gly-Aprp1h3) [BRU-2987] | 2300 | 
7 | XHWSHXWXPX (DO3A10CM on N-terminus; AA1 Sar; AA6 Darg; AA8 Tbufe4; AA10 azaGly-NH2) [BRU-2634] | 980 | 
8 | DO3A10CM-G[Mpgly]HWSH[dR]W[Bpa]P[azaGly]-NH2 (reading uncertain) [BRU-2793] | 1340 | 
9 | XHWSHXWXPX (DO3A10CM on N-terminus; AA1 Dtyr; AA6 Darg; AA8 Bpa4; AA10 azaGly-NH2) [BRU-2870] | 10000 | 
10 | XHWSHXWXPX (DO3A10CM on N-terminus; AA1 Sar; AA6 Darg; AA8 Aic2; AA10 azaGly-NH2) [BRU-2764] | 4310 | 
11 | XRWSHXWXPG (DO3A10CM on N-terminus; AA1 Dnal2; AA6 Darg; AA8 Bpa4; C-terminal Gly-Az23(py2)2po-Ap) [BRU-2989] | 1130 | 
12 | DO3A10CM-G[Chmgly]HWSHRW[Bpa]P[azaGly]-NH2 (not fully specified (residue 7); reading uncertain; also: AA6 Darg prints R) [BRU-2877] | 900 | 
13 | DO3A10CM-G[Chgly]HWSHRW[Bpa]P[azaGly]-NH2 (reading uncertain; also: AA6 Darg prints R) [BRU-2872] | 2900 | 
14 | XRXSHXWXPX (DO3A10CM on N-terminus; AA1 Dnal2; AA3 Pal3; AA6 Darg; AA8 Bpa4; AA10 azaGly-NH2) [BRU-3109] | 730 | 
15 | XHWSHXWXPX (DO3A10CM on N-terminus; AA1 Sar; AA6 Dharg; AA8 Bpa4; AA10 azaGly-NH2) [BRU-2893] | 2600 | times lower binding than BRU-2443: 2.7 times
16 | XHWSHXWXPX (DO3A10CM on N-terminus; AA1 Sar; AA6 Darg; AA8 Ing2; AA10 azaGly-NH2) [BRU-2765] | 8710 | 
17 | DO3A10CM-[d2Nal]RWSR[dW]W[Bpa]P[azaGly]-NH2 (reading uncertain) [BRU-3001] | 3280 | 
18 | XRWSHXWXP (not fully specified; DO3A10CM on N-terminus; AA1 Dnal2 (Table 6; Sar in paragraph 138); AA6 Darg; AA8 Bpa4; AA10 Az23po-Dabt14) [BRU-3019] | 900 | 
19 | XHWSHXWXPX (DO3A10CM on N-terminus; AA1 Sar; AA6 Darg; AA8 Lys(isp); AA10 azaGly-NH2) [BRU-2675] | 12300 | 
20 | DO3A10CM-G[Etgly]HWSH[dR]W[Bpa]P[azaGly]-NH2 (reading uncertain) [BRU-2789] | 5120 | 
21 | XHWSHXWXPX (DO3A10CM on N-terminus; AA1 EtGly; AA6 Darg; AA8 Bpa4; AA10 azaGly-NH2) [BRU-2788] | 210 | 
22 | {DO3A10CM(3)}-[Sar]HWSH[dK](Nicotinoyl)W[Bpa]P[azaGly]-NH2 [BRU-2671] | 7200 | 
23 | DO3A10CM-G[Iegly]HWSHRW[Bpa]P[azaGly]-NH2 (not fully specified (residue 7); reading uncertain; also: AA6 Darg prints R) [BRU-2879] | 1030 | 
24 | XHWSHXWXPX (DO3A10CM on N-terminus; AA1 Sar; AA6 Darg; AA8 Cha; AA10 azaGly-NH2) [BRU-2718] | 630 | 

Further binders by falling EC50, results first:

Row | EC50 [nM] | Binder | further results
25 | 17400 | XHWSHXWXPX (DO3A10CM on N-terminus; AA1 Sar; AA6 Darg; AA8 Pal3; AA10 azaGly-NH2) [BRU-2726] | 
26 | 15000 | {DO3A10CM″}-[Sar][Tha]WS[Tha][dR]W[Bpa]P[azaGly]-NH2 (reading uncertain) [BRU-2762] | 
27 | 14200 | XHWSHXWXPX (DO3A10CM on N-terminus; AA1 Sar; AA6 Dcit; AA8 Bpa4; AA10 azaGly-NH2) [BRU-2729] | times lower binding than BRU-2443: 15 times
28 | 14000 | {DO3A10CM(3)}-[Sar]HWSH[dA]W[Bpa]P[azaGly]-NH2 [BRU-2672] | 
29 | 13600 | {DO3A10CM″}-[Sar]HWSH[dS]W[Bpa]P[azaGly]-NH2 [BRU-2761] | 
30 | 10000 | {DO3A10CM″}-[Sar]HWSH[dR]WYP[azaGly]-NH2 [BRU-2758] | 
31 | 10000 | XHWSHXWXPX (DO3A10CM on N-terminus; AA1 Sar; AA6 Darg; AA8 Tha; AA10 azaGly-NH2) [BRU-2742] | 
32 | 8540 | XHWSHXWYPX (HELM PEPTIDE1{[Glp].H.W.S.H.[dK].W.Y.P.[O=C(NN[*:1])[*:2]].[am]}$$$$V2.0; SMILES NCCCC[C@@H](NC(=O)[C@H](Cc1c[nH]cn1)NC(=O)[C@H](CO)NC(=O)[C@H](Cc1c[nH]c2ccccc12)NC(=O)[C@H](Cc1c[nH]cn1)NC(=O)[C@@H]1CCC(=O)N1)C(=O)N[C@@H](Cc1c[nH]c2ccccc12)C(=O)N[C@@H](Cc1ccc(O)cc1)C(=O)N1CCC[C@H]1C(=O)NNC(N)=O) [BRU-2437] | 
33 | 5280 | {DO3A10CM″}-[Sar][His(pime)]WS[Tha][dR]W[Bpa]P[azaGly]-NH2 (reading uncertain) [BRU-2739] | 
34 | 4480 | DO3A10CM-G[Tdgly]HWSHRW[Bpa]P[azaGly]-NH2 (not fully specified (residue 7); reading uncertain; also: AA6 Darg prints R) [BRU-2878] | 
35 | 4230 | DO3A10CM-[Sar]HWSH[Btd]W[Bpa]P[azaGly]-NH2 (reading uncertain) [BRU-3000] | times lesser binding efficacy than BRU-2443: 4.5 times
36 | 3550 | XHWSHXWXPX (DO3A10CM on N-terminus; AA1 Sar; AA6 Darg; AA8 Amfe4; AA10 azaGly-NH2) [BRU-2760] | 
37 | 3540 | XHWSHXWXPX (DO3A10CM on N-terminus; AA1 Nal2; AA6 Darg; AA8 Bpa4; AA10 azaGly-NH2) [BRU-2809] | 
38 | 3300 | DO3A10CM-G[Ipgly]HWSH[dR]W[Bpa]P[azaGly]-NH2 (reading uncertain) [BRU-2790] | 
39 | 2140 | XHWSHXWXPX (DO3A10CM on N-terminus; AA1 Sar; AA6 Darg; AA8 Bip; AA10 azaGly-NH2) [BRU-2625] | 
40 | 1970 | DO3A10CM-G[Apgly]HWSHRW[Bpa]P[azaGly]-NH2 (not fully specified (residue 7); reading uncertain; also: AA6 Darg prints R) [BRU-2874] | 
41 | 1900 | XHWSHXWXPX (DO3A10CM on N-terminus; AA1 Sar; AA6 Darg; AA8 Bpa(NOH); AA10 azaGly-NH2) [BRU-2907] | 

Row | EC50 [nM] | Binder | further results
42 | 1570 | XHWSHXWXPX (DO3A10CM on N-terminus; AA1 Sar; AA6 Darg; AA8 Tyr(OBz); AA10 azaGly-NH2) [BRU-2820] | 
43 | 1400 | XHWSHXWXPX (DO3A10CM on N-terminus; AA1 Ambz4; AA6 Darg; AA8 Bpa4; AA10 azaGly-NH2) [BRU-2737] | 
44 | 1360 | DO3A10CM-[Sar]HWSH[dW]W[Bpa]P[azaGly]-NH2 (reading uncertain) [BRU-2731] | 
45 | 1330 | DO3A10CM-G[Hegly]HWSHRW[Bpa]P[azaGly]-NH2 (reading uncertain; also: AA6 Darg prints R) [BRU-2873] | 
46 | 1300 | DO3A10CM-G[Prgly]HWSH[dR]W[Bpa]P[azaGly]-NH2 (reading uncertain) [BRU-2794] | 
47 | 1290 | {DO3A10CM″}-G[Mephe]HWSHRW[Bpa]P[azaGly]-NH2 (not fully specified (residue 7)) [BRU-2755] | 
48 | 1130 | XRWSHXWXP (DO3A10CM on N-terminus; AA1 Dnal2; AA6 Darg; AA8 Bpa4; AA10 Aprp1h3) [BRU-2982] | 
49 | 930 | XRWSXXWXPX (DO3A10CM on N-terminus; AA1 Dnal2; AA5 Cit; AA6 Darg; AA8 Bpa4; AA10 azaGly-NH2) [BRU-3030] | 
50 | 850 | XRXSHXWXPX (DO3A10CM on N-terminus; AA1 Dnal2; AA3 Dtrp; AA6 Darg; AA8 Bpa4; AA10 azaGly-NH2) [BRU-3112] | 
51 | 840 | XRWXHXWXPX (DO3A10CM on N-terminus; AA1 Dnal2; AA4 Pal4; AA6 Darg; AA8 Bpa4; AA10 azaGly-NH2) [BRU-2957] | 
52 | 770 | XHWSHXWXPX (DO3A10CM on N-terminus; AA1 Sar; AA6 Darg; AA8 Dtyr(OBz); AA10 azaGly-NH2) [BRU-2819] | 
53 | 760 | XHWSHXWXPX (DO3A10CM on N-terminus; AA1 Mednal2; AA6 Darg; AA8 Bpa4; AA10 azaGly-NH2) [BRU-3003] | 
54 | 710 | XRWSHXWXP (not fully specified; DO3A10CM on N-terminus; AA1 Dnal2 (Table 6; Sar in paragraph 138); AA6 Darg; AA8 Bpa4; AA10 Az23po-Da15o3pt) [BRU-3022] | 
55 | 710 | XRWSXXWXPX (DO3A10CM on N-terminus; AA1 Dnal2; AA5 Tha; AA6 Darg; AA8 Bpa4; AA10 azaGly-NH2) [BRU-2958] | 
56 | 580 | XRWSHXWXPX (DO3A10CM on N-terminus; AA1 Mednal2; AA6 Darg; AA8 Bpa4; AA10 azaGly-NH2) [BRU-2965] | fold reduction in binding potency against BRU-2813: 2 fold
57 | 540 | XHWSHXWXPX (DO3A10CM on N-terminus; AA1 Sar; AA6 Darg; AA8 Nal1; AA10 azaGly-NH2) [BRU-2720] | 

Source: patent US20120045393A1 (priority 2009, published 2012)
